The series deals with APOBEC3A wild-type (Homo sapiens) (UniProt P31941). Particulars: 5-nitroindole at positions 12-14; deamination activity.
APOBEC3A wild-type (Homo sapiens), sequence (P31941 whole entry): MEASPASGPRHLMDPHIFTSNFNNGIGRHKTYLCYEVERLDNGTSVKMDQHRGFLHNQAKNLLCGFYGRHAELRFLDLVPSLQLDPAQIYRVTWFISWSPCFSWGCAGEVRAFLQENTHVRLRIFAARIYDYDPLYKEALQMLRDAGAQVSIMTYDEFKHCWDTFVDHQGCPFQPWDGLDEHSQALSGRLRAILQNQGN

Sequence “AAAAAAAAATCNNNAAAAAAA [+1 to +3 5-nitroindole substrate]” displayed a binding signal (fold lower than n3) of 2.

The values are drawn from patent US20180170984.
